The test deals with T1, TPP-2614, TweakR-ECD-34-68-hIgGFc-His-D47A (human).
T1 construct: alanine-scan mutein; used as HEK293 supernatant
Nature of the test: ELISA, IgG coated at 1 µg/ml, 8-fold diluted HEK293 supernatant with the TWEAKR(34-68)-Fc mutein, anti-HIS-HRP, Amplex Red.

Protocol: These TWEAKR(34-68) Fc muteins were expressed in HEK293 cells. To obtain dose-reaction data, IgGs were coated at a concentration of 1 μg/ml onto a 384-well Maxisorp ELISA plate, and a serial 2-fold dilution of the supernatant comprising the TWEAKR mutein was used as soluble binding partner. Detection was carried out using anti-HIS-HRP and Amplex Red.

B1: TPP-2090 (antibody, human IgG1, kappa, V domains shown)
VH: EVQLLESGGGLVQPGGSLRLSCAASGFTFSPYPMIWVRQAPGKGLEWVSYISPSGGSTHYADSVKGRFTISRDNSKNTLYLQMNSLRAEDTAVYYCARGGDTYFDYFDYWGQGTLVTVSS
VL: DIQMTQSPSSLSASVGDRVTITCRASQSISGYLNWYQQKPGKAPKLLIYQASSLQSGVPSRFSGSGSGTDFTLTISSLQPEDFATYYCQQSYTSPFITFGQGTKVEIKR
notes: human IgG1, anti-TWEAKR; biotinylated where used as soluble partner in the ELISAs
In the case of B1, the binding result is “no binding (tested: 8-fold diluted supernatant)”.
